In paper PMC9166816, “RNF219 regulates CCR4-NOT function in mRNA translation and deadenylation” (Scientific Reports, 2022):

Target: CCR4-NOT complex (human (endogenous in human cell lines), UniProt A5YKK6 1-2376; Q9NZN8 1-540; O75175 1-753; Q9H9A5 1-744; Q9UKZ1 1-510)
Test: cell-based or functional assay

B1: lambdaN-peptide and HA-tagged RNF219 (NHA-RNF219) (natural protein)
chain: MAQTVQNVTLSLTLPITCHICLGKVRQPVICINNHVFCSICIDLWLKNNSQCPACRVPITPENPCKEIIGGTSESEPMLSHTVRKHLRKTRLELLHKEYEDEIDCLQKEVEELKSKNLSLESQIKTILDPLTLVQGNQNEDKHLVTDNPSKINPETVAEWKKKLRTANEIYEKVKDDVDKLKEANKKLKLENGGLVRENLRLKAEVDNRSPQKFGRFAVAALQSKVEQYERETNRLKKALERSDKYIEELESQVAQLKNSSEEKEAMNSICQTALSADGKGSKGSEEDVVSKNQGDSARKQPGSSTSSSSHLAKPSSSRLCDTSSARQESTSKADLNCSKNKDLYQEQVEVMLDVTDTSMDTYLEREWGNKPSDCVPYKDEELYDLPAPCTPLSLSCLQLSTPENRESSVVQAGGSKKHSNHLRKLVFDDFCDSSNVSNKDSSEDDISRSENEKKSECFSSPKTGFWDCCSTSYAQNLDFESSEGNTIANSVGEISSKLSEKSGLCLSKRLNSIRSFEMNRTRTSSEASMDAAYLDKISELDSMMSESDNSKSPCNNGFKSLDLDGLSKSSQGSEFLEEPDKLEEKTELNLSKGSLTNDQLENGSEWKPTSFFLLSPSDQEMNEDFSLHSSSCPVTNEIKPPSCLFQTEFSQGILLSSSHRLFEDQRFGSSLFKMSSEMHSLHNHLQSPWSTSFVPEKRNKNVNQSTKRKIQSSLSSASPSKATKS
  Renilla/Firefly luciferase ratio (RL/FL) of the 5BoxB reporter with tethered NHA-RNF219: 0.307 RL/FL ratio

B2: RNF219-Id, CCR4-NOT complex interaction defective RNF219 allele (natural protein)
chain: MAQTVQNVTLSLTLPITCHICLGKVRQPVICINNHVFCSICIDLWLKNNSQCPACRVPITPENPCKEIIGGTSESEPMLSHTVRKHLRKTRLELLHKEYEDEIDCLQKEVEELKSKNLSLESQIKTILDPLTLVQGNQNEDKHLVTDNPSKINPETVAEWKKKLRTANEIYEKVKDDVDKLKEANKKLKLENGGLVRENLRLKAEVDNRSPQKFGRFAVAALQSKVEQYERETNRLKKALERSDKYIEELESQVAQLKNSSEEKEAMNSICQTALSADGKGSKGSEEDVVSKNQGDSARKQPGSSTSSSSHLAKPSSSRLCDTSSARQESTSKADLNCSKNKDLYQEQVEVMLDVTDTSMDTYLEREWGNKPSDCVPYKDEELYDLPAPCTPLSLSCLQLSTPENRESSVVQAGGSKKHSNHLRKLVFDDFCDSSNVSNKDSSEDDISRSENEKKSECFSSPKTGFWDCCSTSYAQNLDFESSEGNTIANSVGEISSKLSEKSGLCLSKRLNSIRSFEMNRTRTSSEASMDAAYLDKISVENSKSPCNNGFKSLDLDGLSKSSQGSEFLEEPDKLEEKTELNLSKGSLTNDQLENGSEWKPTSFFLLSPSDQEMNEDFSLHSSSCPVTNEIKPPSCLFQTEFSQGILLSSSHRLFEDQRFGSSLFKMSSEMHSLHNHLQSPWSTSFVPEKRNKNVNQSTKRKIQSSLSSASPSKATKS
  Renilla/Firefly luciferase ratio (RL/FL) of the 5BoxB reporter with tethered NHA-RNF219-Id (lambdaN-HA tagged form of the allele): 1.5 RL/FL ratio
